Test results: PMC5493779, “Recognition of a glycosylation substrate by the O-GlcNAc transferase TPR repeats” (Open Biology, 2017)
Where no end group is shown, it is not given here.

T1: human O-GlcNAc transferase, truncated (315-1031), as it stands in the substrate:OGT fusion proteins (human, UniProt O15294-3 315-1031)
T1 construct: human O-GlcNAc transferase (OGT), codon-optimised, residues 315-1031 starting at Thr315; holds TPR repeats and the catalytic domain; In the crystals this stretch is joined on one chain to the substrate peptide (m2 or m3) by a GGG linker; the whole chains are m4 and m5; also called hOGT; source: E. coli BL21 (DE3) pLysS, purified (Ni-NTA, anion exchange, gel filtration) as part of the fusion …
T1 sequence (looked up): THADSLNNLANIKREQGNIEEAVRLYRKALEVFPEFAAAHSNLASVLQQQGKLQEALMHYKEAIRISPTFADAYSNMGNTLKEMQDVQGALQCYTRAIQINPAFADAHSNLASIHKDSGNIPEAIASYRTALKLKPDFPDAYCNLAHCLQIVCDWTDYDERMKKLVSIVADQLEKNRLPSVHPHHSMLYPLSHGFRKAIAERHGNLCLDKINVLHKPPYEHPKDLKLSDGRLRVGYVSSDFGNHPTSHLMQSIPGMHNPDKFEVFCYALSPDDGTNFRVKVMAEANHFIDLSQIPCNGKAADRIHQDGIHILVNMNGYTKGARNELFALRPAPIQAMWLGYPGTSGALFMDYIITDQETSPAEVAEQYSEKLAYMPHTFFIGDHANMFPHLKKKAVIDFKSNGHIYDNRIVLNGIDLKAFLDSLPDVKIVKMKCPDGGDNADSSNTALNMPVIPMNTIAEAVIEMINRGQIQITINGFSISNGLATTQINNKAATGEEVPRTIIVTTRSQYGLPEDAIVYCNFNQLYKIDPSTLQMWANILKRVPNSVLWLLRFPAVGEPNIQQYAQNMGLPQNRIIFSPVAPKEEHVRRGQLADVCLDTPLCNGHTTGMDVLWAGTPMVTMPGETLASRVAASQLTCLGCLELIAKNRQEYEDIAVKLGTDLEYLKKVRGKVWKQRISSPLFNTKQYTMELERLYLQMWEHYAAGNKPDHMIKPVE

T2: His6-hOGT (312-1031), wild type (human) (UniProt O15294)
T2 sequence: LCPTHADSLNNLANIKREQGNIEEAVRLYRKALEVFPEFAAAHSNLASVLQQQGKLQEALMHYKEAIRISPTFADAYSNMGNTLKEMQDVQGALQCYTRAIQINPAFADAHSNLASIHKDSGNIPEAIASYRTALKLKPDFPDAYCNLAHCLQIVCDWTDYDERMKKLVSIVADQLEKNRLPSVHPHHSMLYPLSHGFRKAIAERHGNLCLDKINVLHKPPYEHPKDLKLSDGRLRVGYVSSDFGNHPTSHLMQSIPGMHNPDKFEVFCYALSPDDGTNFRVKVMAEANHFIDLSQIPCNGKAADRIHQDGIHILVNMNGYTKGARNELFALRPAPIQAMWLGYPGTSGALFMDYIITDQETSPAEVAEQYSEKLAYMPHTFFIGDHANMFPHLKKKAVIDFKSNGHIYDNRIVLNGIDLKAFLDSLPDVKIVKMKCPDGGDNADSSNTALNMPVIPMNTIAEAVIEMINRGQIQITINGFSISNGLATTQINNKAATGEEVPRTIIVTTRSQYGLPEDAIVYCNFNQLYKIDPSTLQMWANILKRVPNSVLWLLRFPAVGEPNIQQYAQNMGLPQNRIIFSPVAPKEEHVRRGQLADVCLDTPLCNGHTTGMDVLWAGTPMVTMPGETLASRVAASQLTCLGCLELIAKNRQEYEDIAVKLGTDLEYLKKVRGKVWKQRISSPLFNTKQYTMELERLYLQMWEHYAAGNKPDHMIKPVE


Assays:
[1] = target: T1, human O-GlcNAc transferase, truncated …; experiment: crystal structure; substrate peptide fused through a 3xGly linker to the N-terminus of OGT 315-1031 (one chain); about 10 mg/ml protein with 5 mM UDP, sitting drop, 0.1 M Tris pH 8.5; one molecule per asymmetric unit; conditions: both partners purified
[2] = target: His6-hOGT (312-1031) 5N5A quintuple mutant (human) (UniProt O15294)
[3] = target: T2, His6-hOGT (312-1031), wild type (human)

Row | Binder | binding result [1] | also measured
1 | PPCETHETGTTNTATTAT (host cell factor 1 (HCF1), one repeat of the proteolytic processing domain; In the crystal its C-terminus is joined by a GGG linker to Thr315 of OGT on one chain; the whole chain is m4; The PreScission site of the vector was replaced by the peptide and linker; also called HCF1 peptide; host cell factor 1 PPD repeat; source: E. coli BL21 (DE3) pLysS, purified (Ni-NTA, anion exchange, gel …)) [18-mer HCF1PRO repeat peptide (PPCETHETGTTNTATTAT)] | binds | –
2 | TAB1 (7-409) protein (domain or fragment) SLLQSEQQPSWTDDLPLCHLSGVGSASNRSYSADGKGTESHPPEDSWLKFRSENNCFLYGVFNGYDGNRVTNFVAQRLSAELLLGQLNAEHAEADVRRVLLQAFDVVERSFLESIDDALAEKASLQSQLPEGVPQHQLPPQYQKILERLKTLEREISGGAMAVVAVLLNNKLYVANVGTNRALLCKSTVDGLQVTQLNVDHTTENEDELFRLSQLGLDAGKIKQVGIICGQESTRRIGDYKVKYGYTDIDLLSAAKSKPIIAEPEIHGAQPLDGVTGFLVLMSEGLYKALEAAHGPGQANQEIAAMIDTEFAKQTSLDAVAQAVVDRVKRIHSDTFASGGERARFCPRHEDMTLLVRNFGYPLGEMSQPTPSPAPAAGGRVYPVSVPYSSAQSTSKTSVTLSL | – | reduction of glycosyltransferase activity on TAB1 (7-409) against WT OGT, western blot with an O-GlcNAc Ser395 specific antibody, quantified [2]: 50%
3 | KKPVSVPYSSAQSTSKTSVTLSL [free TAB1 peptide …] | – | KM of the TAB1 peptide in steady-state kinetics of O-GlcNAc transfer (50 nM hOGT, 50 µM UDP-GlcNAc, UDP formation by fluorescence) [3]: 42 µM
4 | VPYSSAQSTSKTSVTLSL (also: O-GlcNAc on Ser395, In the crystal its C-terminus is joined by a GGG linker to Thr315 of OGT on one chain; the whole chain is m5; Extra density near Ser396 and Ser399 hints at further glycosylation; also called TAB1 C-terminal domain; source: E. coli BL21 (DE3) pLysS, purified (Ni-NTA, anion exchange, gel filtration) as part of the fusion protein) [18-mer TAB1 peptide derived from the S395 glycosylation site (VPYSSAQSTSKTSVTLSL)] | binds | –
